pKd: −log10 of the molar value.
Key:
[1] = molecular target: soluble monomeric hFcRn (human) (UniProt P55899); experiment: Biacore, IgGs immobilized on the same chip, soluble monomeric hFcRn; reference human IgG1
[2] = molecular target: hIgG (human IgG); experiment: Biacore, hIgG immobilized

fold tighter Kd than hIgG [1] [fold] | pKd [2] | Substance
2 | – | rabbit IgG1 (antibody)
– | 5.70 | soluble monomeric hFcRn (from UniProt P55899 24-297; P61769 21-119) (receptor)

— US20070148164A1
